{"source": "patent US20230101735A1", "about": "“ANTI-TROP-2 ANTIDODY-EXATECAN ANALOG CONJUGATE AND MEDICAL USE THEREOF” (JIANGSU HENGRUI MEDICINE CO., LTD., priority 2020, published 2023)", "molecules": {"B1": {"name": "ADC-4 (TINA-58, n=3.99) (antibody, human IgG1, kappa, V domains shown)", "VH": "QVQLVQSGAEVKKPGASVKVSCKASGYTFTTAGMQWVRQAPGQGLEWMGWINTHSGVPKYAEDFKGRVTISADTSTSTAYLQLSSLKSEDTAVYYCARSGFGSSYWYFDVWGQGTLVTVSS", "VL": "DIQMTQSPSSLSASVGDRVTITCKASQDVSTAVAWYQQKPGKAPKLLIYSASYRYTGVPSRFSGSGSGTDFTLTISSLQPEDFAVYYCQQHYITPLTFGQGTKLEIKR", "modifications": "compound 58 coupled to cysteine thiols after TCEP reduction; positions not given; compound 58 (linker-drug) coupled to cysteine thiols after TCEP reduction; mean n=3.99 per antibody, positions not given"}, "B2": {"name": "ADC-5 (PD3-58, n=3.88) (antibody, human IgG1, kappa, V domains shown)", "VH": "EVQLVQSGSELKKPGASVKVSCKASGYTFTNYGMNWVKQAPGQGLKWMGWINTYTGEPTYTQDFKGRFAFSLDTSVSTAYLQISSLKAEDTAVYYCARGGFGSSYWYFDVWGQGTLVTVSS", "VL": "B1 VL with M4L, T20S, T31I, S60D, Q100A, L104V", "modifications": "compound 58 coupled to cysteine thiols after TCEP reduction; positions not given; compound 58 coupled to cysteine thiols after TCEP reduction; mean n=3.88 per antibody, positions not given"}, "B3": {"name": "PD3 anti-TROP-2 antibody (antibody, human IgG1, kappa, V domains shown)", "VH": "B2 VH", "VL": "B1 VL with M4L, T20S, T31I, S60D, Q100A, L104V", "notes": "CDR-mutated variant designed on the hRS7 template; also called PD3 antibody"}, "B4": {"name": "TINA anti-TROP-2 antibody (control molecule) (antibody, human IgG1, kappa, V domains shown)", "VH": "B1 VH", "VL": "B1 VL"}, "B5": {"name": "ADC-7 (hRS7-9-A, n=3.72) (antibody, human IgG1, kappa, V domains shown)", "VH": "B2 VH with E1Q, V5Q, Q62D, E89D, Y95F, T115S", "VL": "B1 VL with M4L, T20S, T31I, S60D, Q100A, L104V", "modifications": "compound 9-A coupled to cysteine thiols after TCEP reduction; positions not given; compound 9-A coupled to cysteine thiols after TCEP reduction; mean n=3.72 per antibody, positions not given"}, "B6": {"name": "hRS7 anti-TROP-2 antibody (control molecule) (antibody, human IgG1, kappa, V domains shown)", "VH": "B2 VH with E1Q, V5Q, Q62D, E89D, Y95F, T115S", "VL": "B1 VL with M4L, T20S, T31I, S60D, Q100A, L104V"}}, "key": {"hTROP-2": {"target": "T1, hTROP-2 (Homo sapiens, UniProt P09758)", "T1 sequence (P09758 27-274)": "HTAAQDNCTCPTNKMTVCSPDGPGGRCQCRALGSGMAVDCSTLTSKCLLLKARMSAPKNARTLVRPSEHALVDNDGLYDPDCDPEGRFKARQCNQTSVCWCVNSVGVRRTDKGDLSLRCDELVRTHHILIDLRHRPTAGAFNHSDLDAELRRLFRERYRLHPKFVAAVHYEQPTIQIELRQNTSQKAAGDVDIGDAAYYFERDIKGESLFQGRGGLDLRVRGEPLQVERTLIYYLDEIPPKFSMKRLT", "experiment": "Antibody protein level binding assay (ELISA)", "conditions": "absorbance at 450 nm", "experimental": "(§1) hTROP-2 protein was diluted to 1 μg/mL with PBS buffer at pH 7.4 (Shanghai BasalMedia Technologies Co., LTD., B320), added into a 96-well microplate at 100 μL per well, and incubated at 4° C. overnight. After the liquid was discarded, 300 μL of 5% skim milk (BD, 232100) diluted with PBS was added into each well for blocking and incubated at 37° C. for 2 h. After the blocking was completed, the blocking solution was discarded; after the plate was washed 3 times with PBST buffer (pH 7.4, PBS containing 0.1% tween-20), 100 μL of a gradient diluted antibody solution was added into each well and incubated at 37° C. for 1 h. After the incubation was completed, the plate was washed 3 times with PBST buffer, and 100 μL of 1:8000 diluted mouse anti-human IgG (H+L) (Jackson ImmunoResearch, 209-035-088) was added into each well and incubated at 37° C. for 1 h. After the plate was washed 3 times with PBST buffer, 100 μL of TMB chromogenic substrate (KPL, 5120-0077) was added into each well and incubated at room temperature for 10-15 min, and the reaction was terminated by adding 50 μL of 1 M H2504 into each well. The plate was detected for the absorbance at 450 nm using a microplate reader, the binding curves of antibodies to antigen were fitted with software, and the EC50 value was calculated."}, "TROP-2": {"system": "TROP-2", "experiment": "Antibody endocytosis assay (DT3C cell killing)", "type": "cell-based", "conditions": "antibody-DT3C mixture, three days, CTG"}, "[1]": {"target": "T2, TROP-2 expressed on tumor cell lines (FaDu, HCC827, Colo205, DMS53, SK-OV-3) (human, UniProt P09758 27-323)", "T2 sequence": "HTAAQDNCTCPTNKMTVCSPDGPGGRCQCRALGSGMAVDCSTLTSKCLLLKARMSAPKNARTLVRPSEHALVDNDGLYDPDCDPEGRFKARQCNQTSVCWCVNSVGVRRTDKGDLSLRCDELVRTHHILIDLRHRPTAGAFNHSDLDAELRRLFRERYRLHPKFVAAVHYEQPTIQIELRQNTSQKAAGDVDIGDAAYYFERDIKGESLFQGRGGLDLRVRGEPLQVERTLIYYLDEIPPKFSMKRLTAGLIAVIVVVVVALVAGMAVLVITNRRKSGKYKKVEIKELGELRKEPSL", "experiment": "cell-based or functional assay"}, "[2]": {"target": "T2, TROP-2 expressed on tumor cell lines …", "experiment": "cell-based or functional assay", "remark": "listed apart in the source"}, "[3]": {"target": "T3, hTROP-2 protein (huTROP-2 protein, His27-Thr274, accession No. NP_002344.2) (human, UniProt P09758 27-274)", "T3 construct": "No tag is stated for this construct; also called antigen hTROP-2", "T3 sequence": "T1 sequence (P09758 27-274)", "experiment": "ELISA, plate coated with hTROP-2 protein at 1 ug/mL, anti-human IgG detection, OD450", "experimental": "as §1, with “EC₅₀” for “EC50”"}, "[4]": {"target": "T3, hTROP-2 protein (huTROP-2 protein, …)", "experiment": "SPR (Biacore T200), antibody captured on chip, hTROP-2 as analyte, 1:1 Langmuir fit", "from_the_text": "The affinity of antibody for TROP-2 was detected in a form of a capture antibody. […] After dissociation was completed for each assay cycle, the chip was washed clean and regenerated with regeneration buffer, Glycine1.5 (Cat. #BR100354, GE) or 3 M MgCl₂ (from Human antibody capture kit, Cat. #BR100839, GE). After the assay was completed, the data were fitted with (1:1) Langmuir model using GE Biacore T200 Evaluation version 3.0 to obtain affinity values."}, "[5]": {"target": "T4, human TROP-2 on stably transfected CHO-K1 cells (CHO-K1/hTROP-2) (human, UniProt P09758 27-323)", "T4 construct": "Full-length TROP-2 (Genbank NP_002344.2) expressed from a lentiviral vector; also called stably transfected TROP-2-expressing CHOK1 cells; hTROP-2 protein-expressing cells", "T4 sequence": "T2 sequence", "experiment": "flow cytometry (geometric mean fluorescence) on stably transfected TROP-2-expressing CHOK1 cells, Alexa Fluor 488 anti-human IgG detection", "experimental": "(§2) After centrifugation and removal of the supernatant, the test antibodies that was diluted with FACS buffer to different concentrations were added at 50 μL/well. The plate was incubated in the dark in a 4° C. refrigerator for 1 h. The plate was washed 3 times with FACS buffer by centrifugation at 300 g, and Alexa Fluor 488 goat anti-human IgG (H+L) (invitrogen, A-11013) at working concentration was added. The plate was incubated in the dark in a 4° C. refrigerator for 40 min. The plate was washed 3 times with FACS buffer by centrifugation at 300 g and tested on a BD FACSCantoII flow cytometer for geometric mean fluorescence intensity (MFI). The binding EC₅₀ value of the antibody to the stably transfected TROP-2-expressing cells was calculated."}, "[6]": {"target": "T4, human TROP-2 on stably transfected …", "experiment": "flow cytometry on stably transfected TROP-2-expressing CHOK1 cells", "experimental": "as §2"}}, "note": "Numbering of substitutions follows the chain as printed."}
{"molecule": "hRS7: control anti-TROP-2 antibody, heavy chain SEQ ID NO: 15, light chain SEQ ID NO: 16, constructed with reference to WO03074566 [reference compound]", "values": [{"measurement": "Emax (OD value)", "setting": "hTROP-2", "value": 1.37, "unit": "OD value"}, {"measurement": "Emax", "setting": "TROP-2", "value": 98.5, "unit": "%"}]}
{"molecule": "B1", "values": [{"measurement": "EC50 (nM), killing of Colo205 cells", "setting": "[1]", "value": 59.8, "unit": "nM"}, {"measurement": "EC50 (nM), killing of DMS53 cells", "setting": "[1]", "value": 75.6, "unit": "nM"}, {"measurement": "EC50 (nM), killing of FaDu cells (CTG, 6 days)", "setting": "[1]", "value": 0.53, "unit": "nM"}, {"measurement": "EC50 (nM), killing of HCC827 cells", "setting": "[1]", "value": 0.27, "unit": "nM"}, {"measurement": "Emax (%), killing of Colo205 cells", "setting": "[1]", "value": 99.7, "unit": "%"}, {"measurement": "Emax (%), killing of DMS53 cells", "setting": "[1]", "value": 89.8, "unit": "%"}, {"measurement": "Emax (%), killing of FaDu cells", "setting": "[1]", "value": 101, "unit": "%"}, {"measurement": "Emax (%), killing of HCC827 cells", "setting": "[1]", "value": 88.2, "unit": "%"}, {"measurement": "Emax (%), killing of SK-OV-3 cells", "setting": "[1]", "value": 49.1, "unit": "%"}]}
{"molecule": "B2", "values": [{"measurement": "EC50 (nM), killing of Colo205 cells (second parallel assay)", "setting": "[2]", "value": 25.6, "unit": "nM"}, {"measurement": "EC50 (nM), killing of DMS53 cells (second parallel assay)", "setting": "[2]", "value": 25.7, "unit": "nM"}, {"measurement": "EC50 (nM), killing of FaDu cells (second parallel assay)", "setting": "[2]", "value": 0.14, "unit": "nM"}, {"measurement": "EC50 (nM), killing of HCC827 cells (second parallel assay)", "setting": "[2]", "value": 0.13, "unit": "nM"}]}
{"molecule": "B3", "values": [{"measurement": "EC50", "setting": "[3]", "value": 13.6, "unit": "nM"}, {"measurement": "Emax (OD value)", "setting": "[3]", "value": 1.4, "unit": "OD"}, {"measurement": "Kd", "setting": "[4]", "value": 0.686, "unit": "nM"}, {"measurement": "EC50 (read off the curve)", "setting": "[5]", "value": "~2", "unit": "mg/L"}, {"measurement": "EC50", "setting": "[6]", "value": 1.57, "unit": "nM"}, {"measurement": "Emax (MFI)", "setting": "[6]", "value": 16700, "unit": "MFI"}]}
{"molecule": "B4", "values": [{"measurement": "EC50", "setting": "[3]", "value": 16.1, "unit": "nM"}, {"measurement": "Emax (OD value)", "setting": "[3]", "value": 1.39, "unit": "OD"}, {"measurement": "Kd", "setting": "[4]", "value": 21.5, "unit": "nM"}, {"measurement": "EC50 (read off the curve)", "setting": "[5]", "value": "~4", "unit": "mg/L"}, {"measurement": "EC50", "setting": "[6]", "value": 3.55, "unit": "nM"}, {"measurement": "Emax (MFI)", "setting": "[6]", "value": 14200, "unit": "MFI"}]}
{"molecule": "B5", "values": [{"measurement": "EC50 (nM), killing of Colo205 cells", "setting": "[1]", "value": 52.8, "unit": "nM"}, {"measurement": "EC50 (nM), killing of DMS53 cells", "setting": "[1]", "value": 72.9, "unit": "nM"}, {"measurement": "EC50 (nM), killing of FaDu cells (CTG, 6 days)", "setting": "[1]", "value": 0.31, "unit": "nM"}, {"measurement": "EC50 (nM), killing of HCC827 cells", "setting": "[1]", "value": 0.18, "unit": "nM"}, {"measurement": "Emax (%), killing of Colo205 cells", "setting": "[1]", "value": 99.5, "unit": "%"}, {"measurement": "Emax (%), killing of DMS53 cells", "setting": "[1]", "value": 88.7, "unit": "%"}, {"measurement": "Emax (%), killing of FaDu cells", "setting": "[1]", "value": 101, "unit": "%"}, {"measurement": "Emax (%), killing of HCC827 cells", "setting": "[1]", "value": 89.3, "unit": "%"}, {"measurement": "Emax (%), killing of SK-OV-3 cells", "setting": "[1]", "value": 66.1, "unit": "%"}]}
{"molecule": "B6", "values": [{"measurement": "EC50", "setting": "[3]", "value": 18.3, "unit": "nM"}, {"measurement": "Emax (OD value)", "setting": "[3]", "value": 1.37, "unit": "OD"}, {"measurement": "Kd", "setting": "[4]", "value": 0.987, "unit": "nM"}, {"measurement": "EC50 (read off the curve)", "setting": "[5]", "value": "~3", "unit": "mg/L"}, {"measurement": "EC50", "setting": "[6]", "value": 2.31, "unit": "nM"}, {"measurement": "Emax (MFI)", "setting": "[6]", "value": 16000, "unit": "MFI"}]}
